Measurements reported in US20250155457A1 (DIAGNOSTICA STAGO, published 2025).

Experiments:
Assay in all cases: cell-based or functional assay
[1] = target: T1, exogenous platelet factor 4 (PF4), heparin-modified (PF4/heparin complex) (UniProt P02776 32-101)
T1 sequence (looked up): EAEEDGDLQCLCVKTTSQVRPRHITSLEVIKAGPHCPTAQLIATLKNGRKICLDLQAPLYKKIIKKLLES

[2] = target: T1, exogenous platelet factor 4 (PF4), …; remark: listed apart in the source
[3] = target: T1, exogenous platelet factor 4 (PF4), …; remark: listed apart in the source
[4] = target: T1, exogenous platelet factor 4 (PF4), …; remark: listed apart in the source
[5] = target: T1, exogenous platelet factor 4 (PF4), …; remark: listed apart in the source
[6] = target: T1, exogenous platelet factor 4 (PF4), …; remark: listed apart in the source
[7] = target: T1, exogenous platelet factor 4 (PF4), …; remark: listed apart in the source
[8] = target: T1, exogenous platelet factor 4 (PF4), …; remark: listed apart in the source
[9] = target: T1, exogenous platelet factor 4 (PF4), …; remark: listed apart in the source
[10] = target: T1, exogenous platelet factor 4 (PF4), …; remark: listed apart in the source
[11] = target: T1, exogenous platelet factor 4 (PF4), …; remark: listed apart in the source
[12] = target: T1, exogenous platelet factor 4 (PF4), …; remark: listed apart in the source

B1: chimeric monoclonal antibody 5B9 (antibody, V domains shown)
VH: DVQLQESGPDLVKPSQSLSLTCTVTGYSITSGYSWHWIRQFPGNKLEWMGYIHYSGSTNYNPSLKSRISITRDTSKNQFFLQLNSVTTEDTATYYCARELRLRYFDVWGAGTTVTVSS
VL: EIVLTQSPTTMAASPGEKITITCSASSSISSNYLHWYQQKPGFSPKLLIYRTSNLASGVPARFSGSGSGTSYSLTIGTMEAEDVATYYCQQGSSIPLTFGAGTKLELKR
VS series activation ratio, CD62P labeling, patient 6 whole blood [1]: 117 ratio
VS series inhibition ratio, CD62P labeling, patient 6 whole blood (heparin 100 IU/ml) [1]: 0.94 ratio
VS series activation ratio, Annexin V labeling, patient 2 whole blood [2]: 11.3 ratio
VS series inhibition ratio, Annexin V labeling, patient 2 whole blood (heparin 100 IU/ml) [2]: 0.65 ratio
VS series activation ratio, CD62P labeling, patient 2 whole blood [3]: 13.2 ratio
VS series inhibition ratio, CD62P labeling, patient 2 whole blood (heparin 100 IU/ml) [3]: 0.9 ratio
VS series activation ratio, Annexin V labeling, patient 6 whole blood [4]: 26.5 ratio
VS series inhibition ratio, Annexin V labeling, patient 6 whole blood (heparin 100 IU/ml) [4]: 0.75 ratio
VS series activation ratio, Annexin V labeling, patient 1 whole blood [5]: 95.9 ratio
VS series inhibition ratio, Annexin V labeling, patient 1 whole blood (heparin 100 IU/ml) [5]: 0.85 ratio
VS series activation ratio, CD62P labeling, patient 5 whole blood [6]: 52.7 ratio
VS series inhibition ratio, CD62P labeling, patient 5 whole blood (heparin 100 IU/ml) [6]: 0.84 ratio
VS series activation ratio, CD62P labeling, patient 4 whole blood [7]: 281 ratio
VS series inhibition ratio, CD62P labeling, patient 4 whole blood (heparin 100 IU/ml) [7]: 0.94 ratio
VS series activation ratio, Annexin V labeling, patient 5 whole blood [8]: 8.6 ratio
VS series inhibition ratio, Annexin V labeling, patient 5 whole blood (heparin 100 IU/ml) [8]: 0.61 ratio
VS series activation ratio, CD62P labeling, patient 3 whole blood [9]: 94.2 ratio
VS series inhibition ratio, CD62P labeling, patient 3 whole blood (heparin 100 IU/ml) [9]: 0.57 ratio
VS series activation ratio, Annexin V labeling, patient 3 whole blood [10]: 21.7 ratio
VS series inhibition ratio, Annexin V labeling, patient 3 whole blood (heparin 100 IU/ml) [10]: 0.74 ratio
VS series activation ratio, CD62P labeling, patient 1 whole blood (max % x MFI with 5B9 + PF4 + low heparin over basal) [11]: 300 ratio
VS series inhibition ratio, CD62P labeling, patient 1 whole blood (heparin 100 IU/ml) [11]: 0.88 ratio
VS series activation ratio, Annexin V labeling, patient 4 whole blood [12]: 412 ratio
VS series inhibition ratio, Annexin V labeling, patient 4 whole blood (heparin 100 IU/ml) [12]: 0.95 ratio
